US20260103529A1, “Amino Acid Sequences Directed Against the Melanocortin 4 Receptor and Polypeptides Comprising the Same for the Treatment of MC4R-Related Diseases and Disorders” (Confo Therapeutics N.V., priority 2022, published 2026)

Molecular target: human wild type MC4R (Homo sapiens, UniProt P32245)
Assay: cAMP signaling assay (Lance Ultra HTRF)
Format: cell-based
Set-up: double Twin Strep tag; expressed in transfected cells; host or cells: HEK293
Details: purified nanobodies, human MC4R-overexpressing HEK293 cells, read-out: potencies, MC4R-mediated dose-dependent cAMP accumulation
Description: To confirm MC4R activation, dose-dependent nanobody-induced cAMP signaling was assessed (Lance Ultra HTRF). […] Binding of pN162 to the human melanocortin receptor subtypes MC1R, MC2R, MC3R, MC4R or MC5R transiently expressed as Flag-tagged receptors in HEK293T cells was assessed by flow cytometry.

Sequence of human wild type MC4R (P32245 whole entry): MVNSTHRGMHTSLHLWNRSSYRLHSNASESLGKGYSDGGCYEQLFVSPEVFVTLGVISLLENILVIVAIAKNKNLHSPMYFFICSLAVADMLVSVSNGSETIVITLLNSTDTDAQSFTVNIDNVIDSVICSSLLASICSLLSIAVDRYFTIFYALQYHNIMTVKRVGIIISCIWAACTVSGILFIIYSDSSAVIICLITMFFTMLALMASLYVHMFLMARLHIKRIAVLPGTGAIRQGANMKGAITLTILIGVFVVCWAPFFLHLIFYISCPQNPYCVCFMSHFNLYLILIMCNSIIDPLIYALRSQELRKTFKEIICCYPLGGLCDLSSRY

| EC50 | Molecule |
| --- | --- |
| 0.7 nM | pN152: agonistic anti-MC4R VHH, SEQ ID NO: 183 (protein, pN0152) VHH: QVQLVESGGGLVQPGGSLKLSCAASGSISSKSDWGWYRQAPGKERELVAQITSGGNLKYASAVTGRFTISRDNAKNTVNLLMSRLKPEDTAIYFCNARTWRLVRYYDYWGQGTQVTVSS |
| 393 nM | pN161: agonistic anti-MC4R VHH, SEQ ID NO: 314 (protein, PN0161) VHH: QVQLVESGGGLVQAGGSLRLSCAASGSISRTNGMGWYRQAPGKQRELVAAITTGGSTNYANSAKGRFTISRDNAKNTVYLQMNSLKPEDTAVYYCNARYGSSSFRWGDFEVWGQGTQVTVSS |
